Results reported in the Immune Epitope Database (IEDB).

The sequences below were run against HLA-B*35:01 (assay: IEDB peptide-MHC binding, purified MHC/competitive/radioactivity; ≥ and ≤ were set here for values at or beyond the usual limits of such assays). Settings: source organism: Bordetella pertussis.

Sequence | IC50
DPPATVYRY | 7.2 µM
EVRADNNFY | 25.6 µM
EPVKLTLTG | 13.7 µM
PKPKPKPKP | 64.9 µM
ADDPPATVY | 69.9 µM

The sequences below were run against HLA-B*57:01 in the same assay as above. Settings: source organism: Bordetella pertussis.

Sequence | IC50
RVRALSWLL | 2.12 µM
KQADRDFVW | 11.3 µM
TSRRSVASI | 4.54 µM
LSGEVQRKG | ≥ 70.4 µM

The sequences below were run against HLA-B*53:01 in the same assay as above. Settings: source organism: Bordetella pertussis.

Sequence | IC50
DPPATVYRY | 52.9 µM

The sequences below were run against HLA-B*44:03 in the same assay as above. Settings: source organism: Bordetella pertussis.

Sequence | IC50
PGPQPPQPQ | 48.6 µM
TEVYLEHRM | 2.72 µM

The sequences below were run against HLA-B*07:02 in the same assay as above. Settings: source organism: Bordetella pertussis.

Sequence | IC50
ARRSRVRAL | 15.8 µM
TVLAAGAGL | 69.6 µM
NPYTSRRSV | 0.274 µM

What follows are sequences tested against HLA-A*02:01 in the same assay as above. Settings: source organism: Bordetella pertussis.

Sequence | IC50
EGKMESNKD | ≥ 78.1 µM
SLFAILSST | 1.42 µM
KLLHHILPI | 0.312 µM
RKMLYLIYV | 5.45 µM
